Assay results reported in US20190137523A1 (Hoffmann-La Roche, published 2019).

Molecular target: T1, VEGF-A 121 (Peprotech), dimeric (human, UniProt P15692-9 27-147)
T1 construct: also called VEGF121
T1 sequence (looked up): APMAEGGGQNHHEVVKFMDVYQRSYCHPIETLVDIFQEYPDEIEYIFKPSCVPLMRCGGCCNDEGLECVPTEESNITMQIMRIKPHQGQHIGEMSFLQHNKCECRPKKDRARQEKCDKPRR
Assay: SPR (Biacore T200), consecutive injections. VEGF-A 121 is displayed by captured rH-4.6.1-IgG (Avastin) and saturated again with rH-4.6.1-IgG. Setup as printed: rH-4.6.1-IgG*VEGF-A*rH4.6.1*Ab1*Ab2
Protocol: The sample buffer was the system buffer supplemented with 1 mg/ml CMD (Carboxymethyldextran, Sigma #86524). The system operated at 25° C.

B1: 13.7.40-Ru (antibody, V domains shown)
VH: QAQLQQPGAELVKPGASVNLSCKASGYTFTNYWIHWVSQRPGQGLEWIGEINPSDGRTYYNEKFKNKVILTVDEASTTAYLQLSSLTSEDSAVYYCTSRYYIYGVDYWGQGTTLTVSS
VL: SIVMTQTPKFLLVSPGDRVTITCKASQSVGHDVSWYRQKPGQSPKVLIYYASNRYTGVPDRFTGSGYGTDFTFTVRSVRTEDLAVYFCQQDYTSPLTFGTGTKLELKR
notes: Tested as a ruthenylated conjugate
- binding result: binds
